Experimental data reported in patent publication US20130252901A1 (KIMONELLA VENTURES, published 2013).

T1: Ac-DAEFRHDSGYEVHHQKGGGGC-NH2, immobilized peptide fragment corresponding to the 1-16 region of the amyloid-β … (N-terminal acetyl (Ac); C-terminal amide (NH2); C-terminal cysteine bound to the CM5 chip through a thiol bond)
T1 construct: Synthetic 21-mer; Aβ 1-16 plus GGGG linker and Cys for immobilisation; also called ligand; target ligand
T1 peptide: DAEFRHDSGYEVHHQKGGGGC


Columns and labels:
[1] = target: T1, Ac-DAEFRHDSGYEVHHQKGGGGC-NH2, …; test: SPR, BIACORE 3000, procedure of Example 1
[2] = target: T1, Ac-DAEFRHDSGYEVHHQKGGGGC-NH2, …; test: SPR, BIACORE T100, ligand immobilised on CM5 chip, peptide as analyte 50-2,000 µM, no zinc, kinetic fit
[3] = target: complete β peptide 1-40, marked by a fluorescent marker (UniProt P05067 672-711, fluorescent marker, kind and position not stated); test: cell-based or functional assay
Sequence of complete β peptide 1-40, marked by a fluorescent marker (P05067 672-711 limits assumed): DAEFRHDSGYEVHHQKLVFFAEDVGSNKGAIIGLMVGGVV

[4] = target: T1, Ac-DAEFRHDSGYEVHHQKGGGGC-NH2, …; test: SPR, BIACORE 3000, ligand immobilised on CM5 chip by thiol bond, peptide as analyte 0-25 µM, response at equilibrium; Example 1, BIACORE 3000, response at equilibrium
Method: The SPR spectroscopy experiments were conducted with the BIACORE 3000 apparatus. The reagents for immobilizing the amyloid-β peptide fragment (EDC, NHS, PDEA and cysteine) were bought from GE Healthcare (USA). The buffer used for immobilizing the peptide ligand by formation of thiol bonds was 10 mM sodium acetate at pH 4.5. The regeneration buffer was an HBS buffer containing a medium with 10 mM HEPES and 3 mM EDTA, 0.005% of surfactant P20 and 150 mM NaCl at pH 7.4. […] was a HBS buffer at pH 7.4 and a HEPES buffer at pH 6.8, 50 mM, with 100 μM of Zn(II) ions for the reactive tetrapeptide Ac-HAEE-NH₂. All the buffers were filtered before use.
The peptide fragment of the ligand was: Ac-[…]-NH₂, corresponding to the sequence SEQ. ID. NO.26. This peptide with 21 amino acids contains the 16 amino acids of the N-terminal end of the binding domain of the amyloid-β, i.e. […] (SEQ. ID. NO.25), followed by 4 glycine amino acids and a cysteine C-Terminal end. […]
The reagent Ac-HAEE-NH₂ was prepared by dilution with 7 concentrations, i.e. 0, 2, 5, 10, 15, 20 and 25 μM, and injected in a multichannel mode (20 μL QUICKINJECT, 5 μL/min). […] Next, the dissociation constant Kd was calculated in a known way from curves established for the response at equilibrium (Req) versus the concentration (M) in the BIA evaluation 4.1 program.

Binder	binding result [1]	also measured
Ac-DDHSLAHAEE-NH2 (also called ID; NO; 54) [Ac-DDHSLAHAEE-NH2]	no binding (tested: Kd from 10^-3 to 10^-4 M)	
Ac-KNIAHAEEAD-NH2 (also called ID; NO; 50) [Ac-KNIAHAEEAD-NH2]	no binding (tested: Kd from 10^-3 to 10^-4 M)	
Ac-DEKQLGHAEE-NH2 (also called ID; NO; 57) [Ac-DEKQLGHAEE-NH2]	no binding (tested: Kd from 10^-3 to 10^-4 M)	
Ac-RQISHAEEQE-NH2 (also called ID; NO; 53) [Ac-RQISHAEEQE-NH2]	no binding (tested: Kd from 10^-3 to 10^-4 M)	
Ac-HSLAHAEESD-NH2 (also called ID; NO; 49) [Ac-HSLAHAEESD-NH2]	no binding (tested: Kd from 10^-3 to 10^-4 M)	
Ac-LAHAEE-NH2 (also called ID; NO; 44) [Ac-LAHAEE-NH2]	no binding (tested: Kd from 10^-3 to 10^-4 M)	
Ac-IAHAEE-NH2 (also called ID; NO; 45) [Ac-IAHAEE-NH2]	no binding (tested: Kd from 10^-3 to 10^-4 M)	
Ac-ISHAEE-NH2 (also called ID; NO; 48) [Ac-ISHAEE-NH2]	no binding (tested: Kd from 10^-3 to 10^-4 M)	
Ac-FSHAEE-NH2 (also called ID; NO; 46) [Ac-FSHAEE-NH2]	no binding (tested: Kd from 10^-3 to 10^-4 M)	
Ac-LGHAEE-NH2 (also called ID; NO; 47) [Ac-LGHAEE-NH2]	no binding (tested: Kd from 10^-3 to 10^-4 M)	
Ac-DDAK-NH2 (also called ID; NO) [Ac-DDAK-NH2]		Kd [2]: 1370 µM; koff [2]: 0.0062 s⁻¹
Ac-DEAR-NH2 (also called ID; NO; 12) [Ac-DEAR-NH2]		Kd [2]: 1980 µM; koff [2]: 0.00709 s⁻¹
Ac-EERNFSHAEE-NH2 (also called ID; NO; 56) [Ac-EERNFSHAEE-NH2]	no binding (tested: Kd from 10^-3 to 10^-4 M)	
Ac-AADD-NH2 (also called ID; NO; 32) [Ac-AADD-NH2]	no binding (tested: Kd from 10^-3 to 10^-4 M)	
Ac-AAEE-NH2 (also called ID; NO; 29) [Ac-AAEE-NH2]	no binding (tested: Kd from 10^-3 to 10^-4 M)	
Ac-RADD-NH2 (also called ID; NO) [Ac-RADD-NH2]		inhibition of the aggregation of the Aβ peptide (fluorescence of marked Aβ 1-40 bound to the wells, SYNTHALOID SCREENING PLATE kit), IC50 [3]: 20 µM; Kd [2]: 13 µM; koff [2]: 0.00024 s⁻¹
Ac-RAAE-NH2 (also called ID; NO; 37) [Ac-RAAE-NH2]	no binding (tested: Kd from 10^-3 to 10^-4 M)	
Ac-KAAE-NH2 (also called ID; NO; 38) [Ac-KAAE-NH2]	no binding (tested: Kd from 10^-3 to 10^-4 M)	
Ac-HAEE-NH2 (also called ID; NO; 19) [Ac-HAEE-NH2]		inhibition of the aggregation of the Aβ peptide (fluorescence of marked Aβ 1-40 bound to the wells, SYNTHALOID SCREENING PLATE kit), IC50 [3]: 20 µM; Kd [2]: 90 µM; koff [2]: 3.5e-05 s⁻¹; Kd [4]: 0.022 µM

Binder	binding result [1]	also measured
Ac-RADA-NH2 (also called ID; NO; 36) [Ac-RADA-NH2]	no binding (tested: Kd from 10^-3 to 10^-4 M)	
Ac-RAEE-NH2 (also called ID; NO; 23) [Ac-RAEE-NH2]		Kd [2]: 7700 µM; koff [2]: 0.0112 s⁻¹
Ac-KADE-NH2 (also called ID; NO; 15) [Ac-KADE-NH2]		Kd [2]: 4500 µM; koff [2]: 0.0096 s⁻¹
Ac-HAAE-NH2 (also called ID; NO; 31) [Ac-HAAE-NH2]	no binding (tested: Kd from 10^-3 to 10^-4 M)	
Ac-HADA-NH2 (also called ID; NO; 34) [Ac-HADA-NH2]	no binding (tested: Kd from 10^-3 to 10^-4 M)	
Ac-HAEA-NH2 (also called ID; NO; 30) [Ac-HAEA-NH2]	no binding (tested: Kd from 10^-3 to 10^-4 M)	
Ac-KAED-NH2 (also called ID; NO) [Ac-KAED-NH2]		Kd [2]: 3300 µM; koff [2]: 0.019 s⁻¹
Ac-AADE-NH2 (also called ID; NO; 35) [Ac-AADE-NH2]	no binding (tested: Kd from 10^-3 to 10^-4 M)	
Ac-HADD-NH2 (also called ID; NO) [Ac-HADD-NH2]		Kd [2]: 3250 µM; koff [2]: 0.0104 s⁻¹
Ac-HAAD-NH2 (also called ID; NO; 33) [Ac-HAAD-NH2]	no binding (tested: Kd from 10^-3 to 10^-4 M)	
Ac-DERQISHAEE-NH2 (also called ID; NO; 58) [Ac-DERQISHAEE-NH2]	no binding (tested: Kd from 10^-3 to 10^-4 M)	
Ac-KQLGHAEEGE-NH2 (also called ID; NO; 52) [Ac-KQLGHAEEGE-NH2]	no binding (tested: Kd from 10^-3 to 10^-4 M)	
Ac-HAEESE-NH2 (also called ID; NO; 41) [Ac-HAEESE-NH2]	no binding (tested: Kd from 10^-3 to 10^-4 M)	
Ac-HAEEAD-NH2 (also called ID; NO; 40) [Ac-HAEEAD-NH2]	no binding (tested: Kd from 10^-3 to 10^-4 M)	
Ac-HAEEGE-NH2 (also called ID; NO; 42) [Ac-HAEEGE-NH2]	no binding (tested: Kd from 10^-3 to 10^-4 M)	
Ac-HAEEQE-NH2 (also called ID; NO; 43) [Ac-HAEEQE-NH2]	no binding (tested: Kd from 10^-3 to 10^-4 M)	
Ac-HAEESD-NH2 (also called ID; NO; 39) [Ac-HAEESD-NH2]	no binding (tested: Kd from 10^-3 to 10^-4 M)	
Ac-EEKNIAHAEE-NH2 (also called ID; NO; 55) [Ac-EEKNIAHAEE-NH2]	no binding (tested: Kd from 10^-3 to 10^-4 M)	
Ac-RNFSHAEESE-NH2 (also called ID; NO; 51) [Ac-RNFSHAEESE-NH2]	no binding (tested: Kd from 10^-3 to 10^-4 M)	
